From patent US20250277023A1 (published 2025)

Experiments:
[1] = biological target: T1, PD-L1 (on CHO-PD-L1 cells) (UniProt Q9NZQ7 19-290); assay: FACS binding; Fig. 25
[2] = biological target: T1, PD-L1 (on CHO-PD-L1 cells); assay: FACS binding; Fig. 24
[3] = biological target: T1, PD-L1 (on CHO-PD-L1 cells); assay: FACS binding; Fig. 22

T1 sequence (Q9NZQ7 19-290): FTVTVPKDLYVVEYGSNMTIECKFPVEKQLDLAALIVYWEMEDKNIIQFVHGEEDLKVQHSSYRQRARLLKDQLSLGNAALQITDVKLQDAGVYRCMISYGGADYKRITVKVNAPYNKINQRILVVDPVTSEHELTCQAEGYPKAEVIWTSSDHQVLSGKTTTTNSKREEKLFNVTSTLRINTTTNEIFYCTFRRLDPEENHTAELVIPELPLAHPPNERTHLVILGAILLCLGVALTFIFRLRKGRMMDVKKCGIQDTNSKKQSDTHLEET

Binder | EC50 [1] [nM] | EC50 [2] [nM] | EC50 [3] [nM]
R1110: TIGIT_VH_IL15RA (sushi65 T2A)/TIGIT_VL_IL15/PD-L1-Fab (bispecific antibody) chain 1: QVQLVQSGAEVKKPGSSVKVSCKASGYSFTSYWMNWVRQAPGQGLEWIGMIRPSDSETRLNQMFKDRVTITVDKSTSTAYMELSSLRSEDTAVYYCAGIHDYGHGAYWGQGTLVTVSSGGGGSGGGGSGGGGSGGGGSGIACPPPMSVEHADIWVKSYSLYSRERYICNSGFKRKAGTSSLTECVLNKATNVAHWTTPSLKCIREPKSSDKTHTCPPCPAPELLGGPSVFLFPPKPKDTLMISRTPEVTCVVVDVSHEDPEVKFNWYVDGVEVHNAKTKPREEQYNSTYRVVSVLTVLHQDWLNGKEYKCKVSNKALPAPIEKTISKAKGQPREPQVYTLPPSREEMTKNQVSLTCRVKGFYPSDIAVEWESNGQPENNYKTTPPVLKSDGSFFLASKLTVDKSRWQQGNVFSCSVMHEALHNHYTQKSLSLSPGK chain 2: DIQMTQSPSSLSASVGDRVTITCRASENIYSNLAWYQQKPGKSPKLLVYAASHLPDGVPSRFSGSGSGTDYSLTISSLQPEDFATYYCQHFWGTPRTFGQGTKLEIKGGGGSGGGGSGGGGSGGGGSGNWVNVISDLKKIEDLIQSMHIDATLYTESDVHPSCKVTAMKCFLLELQVISLESGDASIHNTVQDLIILANNSLSSNGNVTESGCKECEELEEKNIKEFLQSFVHIVQMFINTS heavy: QVQLQESGPGLVKPSETLSLTCAVYGDSITSGYWNWIRKPPGKGLEYIGYISYTGSTYQNPSLKSRITMSRDTSKNQYYLKLSSVTAADTAVYYCARSRAWIRTYFDYWGQGTLVTVSSASTKGPSVFPLAPSSKSTSGGTAALGCLVKDYFPEPVTVSWNSGALTSGVHTFPAVLQSSGLYSLSSVVTVPSSSLGTQTYICNVNHKPSNTKVDKRVEPKSCDKTHTCPPCPAPELLGGPSVFLFPPKPKDTLMISRTPEVTCVVVDVSHEDPEVKFNWYVDGVEVHNAKTKPREEQYNSTYRVVSVLTVLHQDWLNGKEYKCKVSNKALPAPIEKTISKAKGQPREPQVYTLPPSREEMTKNQVSLWCLVKGFYPSDIAVEWESNGQPENNYDTTPPVLDSDGSFFLYSDLTVDKSRWQQGNVFSCSVMHEALHNHYTQKSLSLSPGK light: DIQMTQSPSSLSASVGDRVTITCSVSSSISSSNLHWYQQKPGKAPKPWIYGTSNLASGVPSRFSGSGSGTDYTLTISSLQPEDFATYYCQQWSSYPLTFGQGTKLEIKRTVAAPSVFIFPPSDEQLKSGTASVVCLLNNFYPREAKVQWKVDNALQSGNSQESVTEQDSKDSTYSLSSTLTLSKADYEKHKVYACEVTHQGLSSPVTKSFNRGEC | 1.53 |  | 
R1072: TIGIT_VH_IL15RA/TIGIT_VL_IL15/PD-L1-Fab (bispecific antibody) chain 1: QVQLVQSGAEVKKPGSSVKVSCKASGYSFTSYWMNWVRQAPGQGLEWIGMIRPSDSETRLNQMFKDRVTITVDKSTSTAYMELSSLRSEDTAVYYCAGIHDYGHGAYWGQGTLVTVSSGGGGSGGGGSGGGGSGGGGSGITCPPPMSVEHADIWVKSYSLYSRERYICNSGFKRKAGTSSLTECVLNKATNVAHWTTPSLKCIRDPALVHQRPAPPSTVTTAGVTPQPESLSPSGKEPAASSPSSNNTAATTAAIVPGSQLMPSKSPSTGTTEISSHESSHGTPSQTTAKNWELTASASHQPPGVYPQGHSDTTEPKSSDKTHTCPPCPAPELLGGPSVFLFPPKPKDTLMISRTPEVTCVVVDVSHEDPEVKFNWYVDGVEVHNAKTKPREEQYNSTYRVVSVLTVLHQDWLNGKEYKCKVSNKALPAPIEKTISKAKGQPREPQVYTLPPSREEMTKNQVSLTCRVKGFYPSDIAVEWESNGQPENNYKTTPPVLKSDGSFFLASKLTVDKSRWQQGNVFSCSVMHEALHNHYTQKSLSLSPGK chain 2: DIQMTQSPSSLSASVGDRVTITCRASENIYSNLAWYQQKPGKSPKLLVYAASHLPDGVPSRFSGSGSGTDYSLTISSLQPEDFATYYCQHFWGTPRTFGQGTKLEIKGGGGSGGGGSGGGGSGGGGSGNWVNVISDLKKIEDLIQSMHIDATLYTESDVHPSCKVTAMKCFLLELQVISLESGDASIHNTVQDLIILANNSLSSNGNVTESGCKECEELEEKNIKEFLQSFVHIVQMFINTS heavy: QVQLQESGPGLVKPSETLSLTCAVYGDSITSGYWNWIRKPPGKGLEYIGYISYTGSTYQNPSLKSRITMSRDTSKNQYYLKLSSVTAADTAVYYCARSRAWIRTYFDYWGQGTLVTVSSASTKGPSVFPLAPSSKSTSGGTAALGCLVKDYFPEPVTVSWNSGALTSGVHTFPAVLQSSGLYSLSSVVTVPSSSLGTQTYICNVNHKPSNTKVDKRVEPKSCDKTHTCPPCPAPELLGGPSVFLFPPKPKDTLMISRTPEVTCVVVDVSHEDPEVKFNWYVDGVEVHNAKTKPREEQYNSTYRVVSVLTVLHQDWLNGKEYKCKVSNKALPAPIEKTISKAKGQPREPQVYTLPPSREEMTKNQVSLWCLVKGFYPSDIAVEWESNGQPENNYDTTPPVLDSDGSFFLYSDLTVDKSRWQQGNVFSCSVMHEALHNHYTQKSLSLSPGK light: DIQMTQSPSSLSASVGDRVTITCSVSSSISSSNLHWYQQKPGKAPKPWIYGTSNLASGVPSRFSGSGSGTDYTLTISSLQPEDFATYYCQQWSSYPLTFGQGTKLEIKRTVAAPSVFIFPPSDEQLKSGTASVVCLLNNFYPREAKVQWKVDNALQSGNSQESVTEQDSKDSTYSLSSTLTLSKADYEKHKVYACEVTHQGLSSPVTKSFNRGEC | 2.08 | 2 | 3.73
R1111: TIGIT_VH_IL15RA (sushi65 T2A, T81A, T86A)/TIGIT_VL_IL15/PD-L1-Fab (bispecific antibody) chain 1: QVQLVQSGAEVKKPGSSVKVSCKASGYSFTSYWMNWVRQAPGQGLEWIGMIRPSDSETRLNQMFKDRVTITVDKSTSTAYMELSSLRSEDTAVYYCAGIHDYGHGAYWGQGTLVTVSSGGGGSGGGGSGGGGSGGGGSGIACPPPMSVEHADIWVKSYSLYSRERYICNSGFKRKAGTSSLTECVLNKATNVAHWTTPSLKCIRDPALVHQRPAPPSTVATAGVAPQPESLSPSGKEPAASSPSSNNTAATTAEPKSSDKTHTCPPCPAPELLGGPSVFLFPPKPKDTLMISRTPEVTCVVVDVSHEDPEVKFNWYVDGVEVHNAKTKPREEQYNSTYRVVSVLTVLHQDWLNGKEYKCKVSNKALPAPIEKTISKAKGQPREPQVYTLPPSREEMTKNQVSLTCRVKGFYPSDIAVEWESNGQPENNYKTTPPVLKSDGSFFLASKLTVDKSRWQQGNVFSCSVMHEALHNHYTQKSLSLSPGK chain 2: DIQMTQSPSSLSASVGDRVTITCRASENIYSNLAWYQQKPGKSPKLLVYAASHLPDGVPSRFSGSGSGTDYSLTISSLQPEDFATYYCQHFWGTPRTFGQGTKLEIKGGGGSGGGGSGGGGSGGGGSGNWVNVISDLKKIEDLIQSMHIDATLYTESDVHPSCKVTAMKCFLLELQVISLESGDASIHNTVQDLIILANNSLSSNGNVTESGCKECEELEEKNIKEFLQSFVHIVQMFINTS heavy: QVQLQESGPGLVKPSETLSLTCAVYGDSITSGYWNWIRKPPGKGLEYIGYISYTGSTYQNPSLKSRITMSRDTSKNQYYLKLSSVTAADTAVYYCARSRAWIRTYFDYWGQGTLVTVSSASTKGPSVFPLAPSSKSTSGGTAALGCLVKDYFPEPVTVSWNSGALTSGVHTFPAVLQSSGLYSLSSVVTVPSSSLGTQTYICNVNHKPSNTKVDKRVEPKSCDKTHTCPPCPAPELLGGPSVFLFPPKPKDTLMISRTPEVTCVVVDVSHEDPEVKFNWYVDGVEVHNAKTKPREEQYNSTYRVVSVLTVLHQDWLNGKEYKCKVSNKALPAPIEKTISKAKGQPREPQVYTLPPSREEMTKNQVSLWCLVKGFYPSDIAVEWESNGQPENNYDTTPPVLDSDGSFFLYSDLTVDKSRWQQGNVFSCSVMHEALHNHYTQKSLSLSPGK light: DIQMTQSPSSLSASVGDRVTITCSVSSSISSSNLHWYQQKPGKAPKPWIYGTSNLASGVPSRFSGSGSGTDYTLTISSLQPEDFATYYCQQWSSYPLTFGQGTKLEIKRTVAAPSVFIFPPSDEQLKSGTASVVCLLNNFYPREAKVQWKVDNALQSGNSQESVTEQDSKDSTYSLSSTLTLSKADYEKHKVYACEVTHQGLSSPVTKSFNRGEC | 2.39 |  | 
R0968 (PD-L1 monoclonal antibody) (antibody, V domains shown) VH: QVQLQESGPGLVKPSETLSLTCAVYGDSITSGYWNWIRKPPGKCLEYIGYISYTGSTYQNPSLKSRITMSRDTSKNQYYLKLSSVTAADTAVYYCARSRAWIRTYFDYWGQGTLVTVSS VL: DIQMTQSPSSLSASVGDRVTITCSVSSSISSSNLHWYQQKPGKAPKPWIYGTSNLASGVPSRFSGSGSGTDYTLTISSLQPEDFATYYCQQWSSYPLTFGCGTKLEIK | 2.91 | 2.01 | 
R1109: TIGIT_VH_IL15RA (sushi65)/TIGIT_VL_IL15/PD-L1-Fab (bispecific antibody) chain 1: QVQLVQSGAEVKKPGSSVKVSCKASGYSFTSYWMNWVRQAPGQGLEWIGMIRPSDSETRLNQMFKDRVTITVDKSTSTAYMELSSLRSEDTAVYYCAGIHDYGHGAYWGQGTLVTVSSGGGGSGGGGSGGGGSGGGGSGITCPPPMSVEHADIWVKSYSLYSRERYICNSGFKRKAGTSSLTECVLNKATNVAHWTTPSLKCIREPKSSDKTHTCPPCPAPELLGGPSVFLFPPKPKDTLMISRTPEVTCVVVDVSHEDPEVKFNWYVDGVEVHNAKTKPREEQYNSTYRVVSVLTVLHQDWLNGKEYKCKVSNKALPAPIEKTISKAKGQPREPQVYTLPPSREEMTKNQVSLTCRVKGFYPSDIAVEWESNGQPENNYKTTPPVLKSDGSFFLASKLTVDKSRWQQGNVFSCSVMHEALHNHYTQKSLSLSPGK chain 2: DIQMTQSPSSLSASVGDRVTITCRASENIYSNLAWYQQKPGKSPKLLVYAASHLPDGVPSRFSGSGSGTDYSLTISSLQPEDFATYYCQHFWGTPRTFGQGTKLEIKGGGGSGGGGSGGGGSGGGGSGNWVNVISDLKKIEDLIQSMHIDATLYTESDVHPSCKVTAMKCFLLELQVISLESGDASIHNTVQDLIILANNSLSSNGNVTESGCKECEELEEKNIKEFLQSFVHIVQMFINTS heavy: QVQLQESGPGLVKPSETLSLTCAVYGDSITSGYWNWIRKPPGKGLEYIGYISYTGSTYQNPSLKSRITMSRDTSKNQYYLKLSSVTAADTAVYYCARSRAWIRTYFDYWGQGTLVTVSSASTKGPSVFPLAPSSKSTSGGTAALGCLVKDYFPEPVTVSWNSGALTSGVHTFPAVLQSSGLYSLSSVVTVPSSSLGTQTYICNVNHKPSNTKVDKRVEPKSCDKTHTCPPCPAPELLGGPSVFLFPPKPKDTLMISRTPEVTCVVVDVSHEDPEVKFNWYVDGVEVHNAKTKPREEQYNSTYRVVSVLTVLHQDWLNGKEYKCKVSNKALPAPIEKTISKAKGQPREPQVYTLPPSREEMTKNQVSLWCLVKGFYPSDIAVEWESNGQPENNYDTTPPVLDSDGSFFLYSDLTVDKSRWQQGNVFSCSVMHEALHNHYTQKSLSLSPGK light: DIQMTQSPSSLSASVGDRVTITCSVSSSISSSNLHWYQQKPGKAPKPWIYGTSNLASGVPSRFSGSGSGTDYTLTISSLQPEDFATYYCQQWSSYPLTFGQGTKLEIKRTVAAPSVFIFPPSDEQLKSGTASVVCLLNNFYPREAKVQWKVDNALQSGNSQESVTEQDSKDSTYSLSSTLTLSKADYEKHKVYACEVTHQGLSSPVTKSFNRGEC | 1.56 |  | 
